The supplement of paper PMC11246515
± gives the standard deviation of the averaged measurements.

Assay: total protein half-life in vivo (active degradation + dilution); higher = more stable protein
[1] = E. coli NCM3722 delta-clpP delta-lon delta-hslV, growth: N-lim chemostat, doubling time 6 h
[2] = E. coli NCM3722 delta-clpP, growth: N-lim chemostat, doubling time 6 h
[3] = E. coli NCM3722 delta-hslV, growth: N-lim chemostat, doubling time 6 h
[4] = E. coli NCM3722 delta-lon, growth: N-lim chemostat, doubling time 6 h
[5] = E. coli NCM3722 delta-smpB, growth: N-lim chemostat, doubling time 6 h
[6] = wild type E. coli NCM3722, growth: C-lim chemostat, doubling time 6 h
[7] = wild type E. coli NCM3722, growth: C-lim chemostat, doubling time 12 h
[8] = wild type E. coli NCM3722, growth: N-lim chemostat, doubling time 6 h
[9] = wild type E. coli NCM3722, growth: N-lim chemostat, doubling time 12 h
[10] = wild type E. coli NCM3722, growth: P-lim chemostat, doubling time 6 h
[11] = wild type E. coli NCM3722, growth: P-lim chemostat, doubling time 12 h
[12] = wild type E. coli NCM3722, growth: C-lim chemostat, doubling time 3 h

Row | Sequence | total protein half-life in vivo [1] | total protein half-life in vivo [2] | total protein half-life in vivo [3] | total protein half-life in vivo [4] | total protein half-life in vivo [5] | total protein half-life in vivo [6] | total protein half-life in vivo [7] | total protein half-life in vivo [8] | total protein half-life in vivo [9] | total protein half-life in vivo [10] | total protein half-life in vivo [11] | total protein half-life in vivo [12]
1 | MSKARRWVIIVLSLAVLVMIGINMAEKDDTAQVVVNNNDPTYKSEHTDTLVYNPEGALSYRLIAQHVEYYSDQAVSWFTQPVLTTFDKDKIPTWSVKADKAKLTNDRMLYLYGHVEVNALVPDSQLRRITTDNAQINLVTQDVTSEDLVTLYGTTFNSSGLKMRGNLRSKNAELIEKVRTSYEIQNKQTQP [P0ADV9] | 5.91 ± 0.18 h | 5.86 ± 0.15 h | 5.92 ± 0.41 h | 5.82 ± 0.13 h | 6.78 ± 0.24 h | 5.98 ± 0.17 h | 11.2 ± 1.9 h | 5.55 ± 0.17 h | 11.1 ± 0.99 h | 5.85 ± 0.087 h | 11.98 ± 0.014 h | 
2 | MSKATEQNDKLKRAIIISAVLHVILFAALIWSSFDENIEASAGGGGGSSIDAVMVDSGAVVEQYKRMQSQESSAKRSDEQRKMKEQQAAEELREKQAAEQERLKQLEKERLAAQEQKKQAEEAAKQAELKQKQAEEAAAKAAADAKAKAEADAKAAEEAAKKAAADAKKKAEAEAAKAAAEAQKKAEAAAAALKKKAEAAEAAAAEARKKAATEAAEKAKAEAEKKAAAEKAAADKKAAAEKAAADKKAAEKAAAEKAAADKKAAAEKAAADKKAAAAKAAAEKAAAAKAAAEADDIFGELSSGKNAPKTGGGAKGNNASPAGSGNTKNNGASGADINNYAGQIKSAIESKFYDASSYAGKTCTLRIKLAPDGMLLDIKPEGGDPALCQAALAAAKLAKIPKPPSQAVYEVFKNAPLDFKP |  | 6.28 ± 0.72 h | 6.23 ± 0.21 h |  | 5.79 ± 0.58 h | 6.022 ± 0.019 h | 11.6 ± 1.8 h | 5.85 ± 0.2 h | 12.7 ± 1.3 h | 5.49 ± 0.21 h | 12.3 ± 0.83 h | 3.23 ± 0.71 h
3 | MSKEHTTEHLRAELKSLSDTLEEVLSSSGEKSKEELSKIRSKAEQALKQSRYRLGETGDAIAKQTRVAAARADEYVRENPWTGVGIGAAIGVVLGVLLSRR | 5.56 ± 0.57 h | 6.08 ± 0.86 h | 5.45 ± 0.11 h | 6.206 ± 0.014 h | 4.81 ± 0.094 h | 5.64 ± 0.14 h | 9.35 ± 1.2 h | 5.47 ± 0.066 h | 9.88 ± 0.33 h | 5.55 ± 0.1 h | 10.7 ± 1.2 h | 2.81 ± 0.54 h
4 | MSKHDTDTSDQHAAKRRWLNAHEEGYHKAMGNRQVQMIAIGGAIGTGLFLGAGARLQMAGPALALVYLICGLFSFFILRALGELVLHRPSSGSFVSYAREFLGEKAAYVAGWMYFINWAMTGIVDITAVALYMHYWGAFGGVPQWVFALAALTIVGTMNMIGVKWFAEMEFWFALIKVLAIVTFLVVGTVFLGSGQPLDGNTTGFHLITDNGGFFPHGLLPALVLIQGVVFAFASIEMVGTAAGECKDPQTMVPKAINSVIWRIGLFYVGSVVLLVMLLPWSAYQAGQSPFVTFFSKLGVPYIGSIMNIVVLTAALSSLNSGLYCTGRILRSMAMGGSAPSFMAKMSRQHVPYAGILATLVVYVVGVFLNYLVPSRVFEIVLNFASLGIIASWAFIIVCQMRLRKAIKEGKAADVSFKLPGAPFTSWLTLLFLLSVLVLMAFDYPNGTYTIAALPIIGILLVIGWFGVRKRVAEIHSTAPVVEEDEEKQEIVFKPETAS |  | 4.52 h | 4.74 ± 0.064 h | 4.87 h |  |  | 11.4 h | 4.73 h | 10.3 h |  |  | > 4 h
5 | MSKIFDFVKPGVITGDDVQKVFQVAKENNFALPAVNCVGTDSINAVLETAAKVKAPVIVQFSNGGASFIAGKGVKSDVPQGAAILGAISGAHHVHQMAEHYGVPVILHTDHCAKKLLPWIDGLLDAGEKHFAATGKPLFSSHMIDLSEESLQENIEICSKYLERMSKIGMTLEIELGCTGGEEDGVDNSHMDASALYTQPEDVDYAYTELSKISPRFTIAASFGNVHGVYKPGNVVLTPTILRDSQEYVSKKHNLPHNSLNFVFHGGSGSTAQEIKDSVSYGVVKMNIDTDTQWATWEGVLNYYKANEAYLQGQLGNPKGEDQPNKKYYDPRVWLRAGQTSMIARLEKAFQELNAIDVL [P0AB71] | 5.42 ± 0.2 h | 5.14 ± 0.69 h | 5.06 ± 0.15 h | 5.07 ± 0.24 h | 4.73 ± 0.32 h | 5.67 ± 0.37 h | 9.46 ± 0.69 h | 4.87 ± 0.47 h | 8.4 ± 0.15 h | 5.84 ± 0.2 h | 12.19 ± 0.092 h | 3.19 ± 0.097 h
6 | MSKIFEDNSLTIGHTPLVRLNRIGNGRILAKVESRNPSFSVKCRIGANMIWDAEKRGVLKPGVELVEPTSGNTGIALAYVAAARGYKLTLTMPETMSIERRKLLKALGANLVLTEGAKGMKGAIQKAEEIVASNPEKYLLLQQFSNPANPEIHEKTTGPEIWEDTDGQVDVFIAGVGTGGTLTGVSRYIKGTKGKTDLISVAVEPTDSPVIAQALAGEEIKPGPHKIQGIGAGFIPANLDLKLVDKVIGITNEEAISTARRLMEEEGILAGISSGAAVAAALKLQEDESFTNKNIVVILPSSGERYLSTALFADLFTEKELQQ [P0ABK5] | 5.312 ± 0.029 h | 5.14 ± 0.39 h | 4.87 ± 0.096 h | 5.03 ± 0.31 h | 4.53 ± 0.22 h | 6.1 ± 0.7 h | 11.8 ± 2.1 h | 4.68 ± 0.36 h | 8.22 ± 0.3 h | 5.72 ± 0.34 h | 13.1 ± 1.2 h | 3.45 ± 0.18 h
7 | MSKIVKIIGREIIDSRGNPTVEAEVHLEGGFVGMAAAPSGASTGSREALELRDGDKSRFLGKGVTKAVAAVNGPIAQALIGKDAKDQAGIDKIMIDLDGTENKSKFGANAILAVSLANAKAAAAAKGMPLYEHIAELNGTPGKYSMPVPMMNIINGGEHADNNVDIQEFMIQPVGAKTVKEAIRMGSEVFHHLAKVLKAKGMNTAVGDEGGYAPNLGSNAEALAVIAEAVKAAGYELGKDITLAMDCAASEFYKDGKYVLAGEGNKAFTSEEFTHFLEELTKQYPIVSIEDGLDESDWDGFAYQTKVLGDKIQLVGDDLFVTNTKILKEGIEKGIANSILIKFNQIGSLTETLAAIKMAKDAGYTAVISHRSGETEDATIADLAVGTAAGQIKTGSMSRSDRVAKYNQLIRIEEALGEKAPYNGRKEIKGQA [P0A6P9] | 5.56 ± 0.57 h | 5.57 ± 0.75 h | 4.86 ± 0.065 h | 4.95 ± 0.37 h | 4.634 ± 0.024 h | 5.95 ± 0.21 h | 12.831 ± 0.01 h | 5.06 ± 0.19 h | 8.35 ± 0.29 h | 5.52 ± 0.69 h | 11.3 ± 0.84 h | 3.19 ± 0.15 h
8 | MSKKIAVIGECMIELSEKGADVKRGFGGDTLNTSVYIARQVDPAALTVHYVTALGTDSFSQQMLDAWHGENVDTSLTQRMENRLPGLYYIETDSTGERTFYYWRNEAAAKFWLESEQSAAICEELANFDYLYLSGISLAILSPTSREKLLSLLRECRANGGKVIFDNNYRPRLWASKEETQQVYQQMLECTDIAFLTLDDEDALWGQQPVEDVIARTHNAGVKEVVVKRGADSCLVSIAGEGLVDVPAVKLPKEKVIDTTAAGDSFSAGYLAVRLTGGSAEDAAKRGHLTASTVIQYRGAIIPREAMPA | 4.86 ± 0.33 h | 4.46 ± 0.27 h | 4.84 ± 1.2 h |  | 4.53 ± 0.19 h | 5.96 ± 0.1 h | 11.1 ± 0.28 h | 4.64 ± 0.11 h | 8.67 ± 1.7 h | 5.5 ± 0.33 h | 10.6 ± 1.2 h | 2.44 ± 0.65 h
9 | MSKLFWAMLSFITRLPVPRRWSQGLDFEHYSRGIITFPLIGLLLGAISGLVFMVLQAWCGAPLAALFSVLVLVLMTGGFHLDGLADTCDGVFSARSRDRMLEIMRDSRLGTHGGLALIFVVLAKILVLSELALRGESILASLAAACAVSRGTAALLMYRHRYAREEGLGNVFIGKIDGRQTCVTLGLAAIFAAVLLPGMHGVAAMVVTMVAIFILGQLLKRTLGGQTGDTLGAAIELGELVFLLALL | 7.472 ± 0.028 h | 6.699 ± 0.053 h | 6.15 ± 0.36 h | 6.52 h | > 8 h | 5.85 ± 0.84 h | 12.7 ± 1.4 h | 5.87 ± 0.4 h | 11.3 h | 5.6 h | 12.4 ± 1.2 h | 3.48 ± 0.11 h
10 | MSKLIVPQWPQPKGVAACSSTRIGGVSLPPYDSLNLGAHCGDNPDHVEENRKRLFAAGNLPSKPVWLEQVHGKDVLKLTGEPYASKRADASYSNTPGTVCAVMTADCLPVLFCNRAGTEVAAAHAGWRGLCAGVLEETVSCFADNPENILAWLGPAIGPRAFEVGGEVREAFMAVDAKASAAFIQHGDKYLADIYQLARQRLANVGVEQIFGGDRCTYTENETFFSYRRDKTTGRMASFIWLI | 5.05 ± 0.14 h | 4.77 ± 0.76 h | 4.885 ± 0.007 h | 5.03 ± 0.24 h | 4.05 ± 1 h | 5.11 ± 0.72 h | 8.61 ± 0.21 h | 5.03 ± 0.22 h | 9.17 ± 0.77 h | 5.644 ± 0.043 h | 11.9 ± 0.43 h | 3.198 ± 0.027 h
11 | MSKPAITLWSDAHFFSPYVLSAWVALQEKGLSFHIKTIDLDSGEHLQPTWQGYGQTRRVPLLQIDDFELSESSAIAEYLEDRFAPPTWERIYPLDLENRARARQIQAWLRSDLMPIREERPTDVVFAGAKKAPLTAEGKASAEKLFAMAEHLLVLGQPNLFGEWCIADTDLALMINRLVLHGDEVPERLVDYATFQWQRASVQRFIALSAKQSG | 4.94 ± 0.39 h | 5.5 ± 1.7 h | 4.804 ± 0.025 h | 5.18 ± 0.9 h | 4.79 ± 0.39 h | 5.9 ± 0.35 h | 9.65 ± 1.6 h | 4.86 ± 0.41 h | 8.65 ± 0.19 h | 5.764 ± 0.044 h | 12.5 ± 0.95 h | 2.97 ± 0.081 h
12 | MSKPPLFFIVIIGLIVVAASFRFMQQRREKADNDMAPLQQKLVVVSNKREKPINDRRSRQQEVTPAGTSIRYEASFKPQSGGMEQTFRLDAQQYHALTVGDKGTLSYKGTRFVSFVGEQ |  | 6.5 h | 6.4 ± 0.69 h | 5.45 ± 0.15 h | 5.65 ± 0.38 h | 6.11 ± 0.42 h | 11.6 ± 0.63 h | 5.71 ± 0.065 h | 11.3 ± 0.54 h | 5.66 ± 0.5 h | 11.5 ± 0.14 h | 3.61 ± 0.1 h
